Results: article PMC5095699 (Biochemistry, 2015)
Changes are numbered by the printed parent chain. Names and notes keep the numbering of the source. Where two headings read alike, the source gives them in different places. Blank lines part the entries; values can stand above or below the molecule they belong to.

Key:
QdtA = QdtA (Thermoanaerobacterium thermosaccharolyticum, UniProt Q6TFC5, Y17R/R97H); test: X-ray crystal structure, […] A; assay type: binding; conditions: dTDP co-purified from E. coli, not added; pH 6; active site
[1] = target: 3,4-ketoisomerase domain of FdtD (Shewanella denitrificans, UniProt Q12KT8); test: X-ray crystal structure, […] A; assay type: binding; conditions: crystal soaked with 3 mM ligand, pH 7; active site, substrate analogue
[2] = target: 3,4-ketoisomerase domain of FdtD from Shewanella denitrificans (Shewanella denitrificans); test: crystal structure
purified protein [3] = substrate: Cc1cn([C@H]2C[C@H](O)[C@@H](COP(=O)(O)OP(=O)(O)O[C@H]3O[C@H](C)C(=O)[C@H](O)[C@H]3O)O2)c(=O)[nH]c1=O; test: purified protein; assay type: biochemical, Shewanella denitrificans; conditions: 50 mM HEPES pH 7.5, 0.2 mM NADPH, 1 mg/mL KijD10
purified protein [4] = substrate: Cc1cn([C@H]2C[C@H](O)[C@@H](COP(=O)(O)OP(=O)(O)O[C@H]3O[C@H](C)C(=O)[C@H](O)[C@H]3O)O2)c(=O)[nH]c1=O; test: purified protein; conditions: 50 mM HEPES pH 7.5, 0.2 mM NADPH, 1 mg/mL KijD10
crystal structure [5] = target: the molecule itself; test: crystal structure
purified protein [6] = substrate: Cc1cn([C@H]2C[C@H](O)[C@@H](COP(=O)(O)OP(=O)(O)O[C@H]3O[C@H](C)C(=O)[C@H](O)[C@H]3O)O2)c(=O)[nH]c1=O; test: purified protein; assay type: biochemical, Thermoanaerobacterium thermosaccharolyticum; conditions: 50 mM HEPES pH 7.5, 0.2 mM NADPH, 1 mg/mL KijD10
crystal structure [7] = target: the molecule itself; test: crystal structure; remark: listed apart in the source

Molecule: Cc1cn([C@H]2C[C@H](O)[C@@H](COP(=O)(O)OP(=O)(O)O)O2)c(=O)[nH]c1=O [dTDP]
X-ray crystal structure, 2.3 A (QdtA): Observed electron density for the dTDP moiety bound to the QdtA Y17R/R97H mutant enzyme

Molecule: Cc1cn([C@H]2C[C@H](O)[C@@H](COP(=O)(O)OP(=O)(O)O[C@H]3O[C@H](C)[C@@H](NC=O)[C@H](O)[C@H]3O)O2)c(=O)[nH]c1=O [dTDP-4,6-dideoxy-4-formamido-glucose]
X-ray crystal structure, 1.7 A [1]: structure of the enzyme was solved in the presence of dTDP-4,6-dideoxy-4-formamido-D-glucose

stoichiometry N [2]: 2
Molecule: 3,4-ketoisomerase domain of FdtD from Shewanella denitrificans (domain or fragment)

B1: 3,4-ketoisomerase domain of FdtD (Shewanella denitrificans OS217) (protein)
chain: SNNFELKLQMSKVKGVSLHKFHLVNDLRGNLSVGEFEKDIPFTPKRYFTVFGVPNKEVRGEHAHKECKQFLICVSGNCSVLVDDGENREEYVLDSIDKGIYLPPMTWGVQYKYSKDAVLLVFASHYYDSDDYIRDYSTFKQMRQN
Km (purified protein [3]): 790 ± 120 µM | kcat (purified protein [3]): 4.85 ± 0.56 s⁻¹ | kcat/Km (purified protein [3]): 6100 M⁻¹ s⁻¹

B2: QdtA (Thermoanaerobacterium thermosaccharolyticum; Y17R) (protein)
chain: MLYNVALIKFKDIADKRGHLTPIEGKIDIPFDIKRVYYITKVDKDITRGYHAHKKLHQVLICLNGSVKIRLKIPDEEKIIELNDPSVGLYIGPFLWREMFDFTEGCVLLVLASEYCDETDYIRNYDFYIDEAKKRF
Km (purified protein [4]): 370 ± 60 µM

B3: QdtA from Thermoanaerobacterium thermosaccharolyticum, wild-type apoenzyme (enzyme)
chain: B2 chain with R17Y
stoichiometry N (crystal structure [5]): 2 | Km (purified protein [6]): 140 ± 10 µM | kcat (purified protein [6]): 3.85 ± 0.25 s⁻¹ | kcat/Km (purified protein [6]): 28000 M⁻¹ s⁻¹

B4: QdtA (Thermoanaerobacterium thermosaccharolyticum; R97H) (protein)
chain: B2 chain with R17Y, R97H
Km (purified protein [6]): 61 ± 9 µM | kcat (purified protein [6]): 0.4 ± 0.06 s⁻¹ | kcat/Km (purified protein [6]): 6500 M⁻¹ s⁻¹

B5: QdtA Y17R/R97H double mutant from Thermoanaerobacterium thermosaccharolyticum (enzyme)
chain: B2 chain with R97H
Km (purified protein [4]): 21 ± 5 µM | stoichiometry N (crystal structure [7]): 2

B6: QdtA (Thermoanaerobacterium thermosaccharolyticum; Y37F) (protein)
chain: B2 chain with R17Y, Y37F
Km (purified protein [6]): 34 ± 7 µM | kcat (purified protein [6]): 0.023 ± 0.004 s⁻¹ | kcat/Km (purified protein [6]): 690 M⁻¹ s⁻¹
